These results are taken from the DeepSol protein solubility set.

This data set in a line: soluble on expression in E. coli; label from the status in PepcDB or PDB records.
Consider “MGSDKIHHHHHHMRIAILSQGPELYSTKRLVEAATLRGHEVKVINPLECYMNINMRQSSIHIGGEELPPFDAVIPRIGASITFYGSAVLRQFEMMGVYALNDSVGISRSRDKLRSMQLMSRRGIGLPITGFANKPSDIPDLIDMVGGAPLVIKLLEGTQGIGVVLAETRKAAESVIEAFMGLKANIMVQEYIKEANGADIRCFVLGDKVVAAMKRQAMPGEFRSNLHRGGTASLVKLTPEERSVAIRAAKTMGLNVAGVDLLRSNHGPLVMEVNSSPGLEGIEGATAKDVAGAIIEFVEKNALKTKKPTQA”, for which the “soluble on expression in E. coli” value is “not soluble”.
Regarding “MKIEAISTTIVDVPTRRPLQMSFTTVHKQSYVIVQVKAGGLVGIGEGGSVGGPTWGSESAETIKVIIDNYLAPLLVGKDASNLSQARVLMDRAVTGNLSAKAAIDIALHDLKARALNLSIADLIGGTMRTSIPIAWTLASGDTARDIDSALEMIETRRHNRFKVKLGARTPAQDLEHIRSIVKAVGDRASVRVDVNQGWDEQTASIWIPRLEEAGVELVEQPVPRANFGALRRLTEQNGVAILADESLSSLSSAFELARDHAVDAFSLKLCNMGGIANTLKVAAVAEAAGISSYGGTMLDSTVGTAAALHVYATLPSLPYGCELIGPWVLGDRLTQQDLEIKDFEVHLPLGSGLGVDLDHDKVRHYTRAA”, the “soluble on expression in E. coli” value is “soluble”.
For “MRVVVVGTRGSALALAQTRFVVERLKETWPETEFKIRTIKTRGDQGASPREEAIFVKEIQEALLSREIDIAVHSLKDLPTESPRGLKIASVPRRQDPRDVFLGKAAKRLKDLPPGAVVGTSSVRRKAQILALRPDLVVRDLRGNVDTRLAALGNGEYDGIVLAAAGLIRLDLRNRIDEFLDPGEVLPAPGQGALALEVREGDDLAEELCYALHHPPSYHRVRAERAFLRGLGAGCLAPVGALAHVEEDGTLRLEGVLLTPDGKSFIRAEIEGDVSEAEELGLDLARDVLEQGGREILAQIR”, the “soluble on expression in E. coli” value was “soluble”.
On to “MSLETTVITADRMIDVANGKVVKQAAVIVTDNIITASGRLKDLTVPNEATRIDLGNATLMPGLMDMHVHLTSDATRHGYKRLEVSLPRAAITGVKHAKATLDAGFTTVRNVGAPGFADVALRDAINAGDVVGPRMFVAGPSLGVTGGHCDSNLLPYEYDNYSEGVADGPWEVRKKVRRNIKYGATVIKFCATGGVLSKGTKVGAQQYTFEEMKALIDEAHLRGLTVATHAHGTNGIKAAIKASVDSVEHVSLLDDEAIDLAKKNGTYFSMDIYVTEYILGEGEKAGILEESLNKERIVGKTQRENFEKAVKAGVNMVFGSDAEGHHHHHH”, for which the “soluble on expression in E. coli” value is on record as “soluble”.
Take “MHHHHHHSSGVDLGTENLYFQSNAMKHIQINPSILSADLARLGDDVKAVLAAGADNIHFDVMDNHYVPNLTFGPMVLKALRDYGITAGMDVHLMVKPVDALIESFAKAGATSIVFHPEASEHIDRSLQLIKSFGIQAGLALNPATGIDCLKYVESNIDRVLIMSVNPGFGGQKFIPAMLDKAKEISKWISSTDRDILLEIDGGVNPYNIAEIAVCGVNAFVAGSAIFNSDSYKQTIDKMRDELNKV”: the “soluble on expression in E. coli” value is “soluble”.
As for “MAHHHHHHMEGDISSSAFVCGFTAHRAHPLSPISDIRDLCVPRTSTPSASSHALAQALSFPRRPLPHRLLASCLLITTTNRFQAHCSRSAATQPPPPLPCGTTTEREYGWDGLAVFLSADSRVFRSPFSTIVSRFSPFVAAMSDRDVPASMTRTCAPPKAHFLFCSTDARNAAPASNGDVAKLPAPKKPISAPLTPFQSPVDTHRDRHSSRHASPPRQLGRPLPPTQPSFSDVAKRMGSFNDMCEANSLLSSHVRLGEMSTLGISASTSTIPAGSSGSTTSLHWLRIAEDRVMPHPSSTKPAPAALQRNAEYVLERWVEQKVHRTAAMDDAMMKVAAAFDELYA”, the “soluble on expression in E. coli” value is “soluble”.
Consider “MKSYAILNQNNLFLSLEELKAIIDSDEVEYYHGVALFNKEPNNVAKRSSLIKYSGRVIAISHDVNEIVKNIKGECFSVDPTVITKEYKSEFLSIYDRIINNIKVSKKCKKMDLIFTEGLIIAGLRVEEKDNESLFKHSKKPYSQSGTLSPDIGRLMVNLSKSRKTILDPFVGTGTILIEAKWLGLNCIGLDVDSKMIEKSLVNLRYFGYECDILRGDATSLPFNNIEAIVTDPPYGRSVSVREGINNLYEGFFYSASNITRTLVFTTDSKLDWRDKLKEVGFNDISIHFIYEHKSLSRAIYVVRKK”, for which the “soluble on expression in E. coli” value was “soluble”.
Turning to “MAFEGLADRLQQTMQKIRGKGKVSEADVKEMMREVRLALLEADVNFKVVKDFVKRVSERAVGQDVMKSLTPGQQVIKVVQEELTELMGGEQSKIAIANKPPTVIMMVGLQGAGKTTTTGKLANLLRKKHNRKPMLVAADIYRPAAIKQLETLGKQLDMPVFSLGDQVSPVEIAKQAIAKAKEDHHDYVLIDTAGHLHIDEELMDELAKVKEVAKPDEIFLVVDAMTGQDAVNVAQSFHEQLGLTGVVLTKLDGDTRGGAALSIKAVTNTPIKFAGMGEKLDALEAFHPERMASRILGMGDVLTLIEKAQATVDEEKAKELEQKMRTLSFTLDDFLEQLGQVRQLGPLDELLGMLPGANKIKGLKNAQVDEKQIGHIEAIIRSMTKLEREQPEIINASRKKRIAKGSGTTVQEINRLIKQFDDMKKMMKTMTGMQKGKKKGLGGLKFPFM”, the “soluble on expression in E. coli” value was “not soluble”.
For “FADRMVIKAQSPAGFAEEYIIESIWNNRFPPGTILPAERELSELIGVTRTTLREVLQRLARDGWLTIQHGKPTKVNNFWETSGLNILETLARLDHESVPQLIDNLLSVRTNISTIFIRTAFRQHPDKAQEVLATANEVADHADAFAELDYNIFRGLAFASGNPIYGLILNGMKGLYTRIGRHYFANPEARSLALGFYHKLSALCSEGAHDQVYETVRRYGHESGEIWHRMQKNLPGDLAIQGR”, the “soluble on expression in E. coli” value is “soluble”.
For “MESKQPEDIHQDCELKQDELISKLQHSQQNFDNIKKILANFEKENENLADENEILKTRIASLEKDVKQEKNATKMAKSLNEETINELTLSEDLIESLKKQFQASKIELKEEILSKNKVEKDYSNDKRYFLEREQYLLITMESMESGKLEHEQQTEIMNKDVEELKIRVKELEATDLSEKNIELERQVGKLTAQLQDFESSRGYEQELILSQLEVQKRKLDKQLIDLQSKLERNPELVEFDKLHEELQTERMNMPVQVCYVHVSFIHKDIENLIYRKMNNNK”, the “soluble on expression in E. coli” value is given as “not soluble”.
As for “MSLDTIKVGFNIPLTGDIPKVGESSKFAAEILKGEINAAGGLKVGDKTYQLEFIYEDNESKAESATATALKLITQDGVLAIIGPQSSKQAIPAGQVCNDNKTPMISPWSTNPKTTENRPYVFRACFLDPFQGPVAAKFVTEEFKAKKAAVLYDIASDYPKGLAEFFKDAFEKIHGPGSVVAFETFTTKDKDFSAQLTKIVASGADVLFTPQYYDEVPLIVKQAQELGWKKPIMGSDSWGSAELMKLCGDACKGYCFSTHYAAAGAKGATKEFIDKYNTKYGYVPDDVAALTWDAINLLFTAVKNTGGLSGNLDKDRDAIKDKLTQVKDFEGITGKMTFAPGGNPTKCAVVVKISDKGEFEFFKSEGHHHHHH”, the “soluble on expression in E. coli” value is “soluble”.
With “MKIAVDAMGGDNAPQAIVEGVMLAKQDFPDIEFQLYGKEAEIKKYITDEKNITIIHTDEKIASDDEPVKAIRRKKTASMVLAAQAVKNGEADAIFSAGNTGALLAAGLFIVGRIKNVERPGLMSTLPVMGEPDKGFDMLDLGANADNKPEHLVQYAVLGSFYAEKVRNVQNPRVGLLNNGTEETKGSELTKKAFELLAADETINFVGNVEARELLNGVADVVVTDGFTGNAVLKSIEGTAMNMMSLLKTAILSEGVKGKMGALLLKNALHGMKDEMDYSKHGGAVLFGLKAPVIKTHGATGPDAVRYTIRQIHTMLETQVVPQLVEYYEGKAE”, the “soluble on expression in E. coli” value is on record as “soluble”.
On to “MSLTSQITSNSPVKWKRRTRHDTCGKITLFALQKTMYFDNLSTKKHNLDNLELERSCFEISETMDSSLSIITYSMSVHSLQKNGEPMKQEKQQFIKTDWTIDMINRRQFEKYAIDILTATKDIHRGGWVERIDNKAWQYVRVYENGDIEVLITLQIIRFHKYFDTPVWLQFNPNHLLPADYVQLDHVMKYVDHSHLTRADLANDIYNINLQRYDFGLFGVTRDIYRSLSGDLETRYWGRRKSERQIRLYDKMREMKKHGKADDIPDGITDWWRLEFQFRGGKVESWQEEVEGHHHHHH”, for which the “soluble on expression in E. coli” value is on record as “not soluble”.
“MGSSHHHHHHSSGLVPRGSGDPDEQYDFLFKLVLVGDASVGKTCVVQRFKTGAFSERQGSTIGVDFTMKTLEIQGKRVKLQIWDTAGQERFRTITQSYYRSANGAILAYDITKRSSFLSVPHWIEDVRKYAGSNIVQLLIGNKSDLSELREVSLAEAQSLAEHYDILCAIETSAKDSSNVEEAFLRVATELIMRHGGPLFS”: the “soluble on expression in E. coli” value is “soluble”.
For the sequence “MESGKMAPPKNAPRDALVMAQILKDMGITEYEPRVINQMLEFAFRYVTTILDDAKIYSSHAKKPNVDADDVRLAIQCRADQSFTSPPPRDFLLDIARQKNQTPLPLIKPYAGPRLPPDRYCLTAPNYRLKSLIKKGPNQGRLVPRLSVGAVSSKPTTPTIATPQTVSVPNKVATPMSVTSQRFTVQIPPSQSTPVKPVPATTAVQNVLINPSMIGPKNILITTNMVSSQNTANEANPLKRKHEDDDDNDIM”, the “soluble on expression in E. coli” value is listed as “soluble”.
On to “MDYDQQPIMYDEVELLIQAVDQQPHPLLRLRDKAIIQLGLQGGFRRSELANLKVHYLSFMRDKLKVRLPFSKSNQQGLREWKSLPDSEPFAAYHAVKSWLNESQITDGHLFRSISRDGKTLRPYHVNDNSKPKSTFSRNSGFLNGDDIYRIIKQYCLKAGLPAQYYGAHSLRSGCVTQLHENNKDILYIMARTGHTDPRSLRHYLKPKEDLEHHHHHH”, for which the “soluble on expression in E. coli” value is listed as “not soluble”.
On to “MIRIENLTKKFDRKVLDNITISLPKNRVSVIVGINGSGKTTLLDCIVGLKDATSGKVFIESYSNDSEKFKECIFYIPSEFYLPNYMTGKEYLNFVLSRYRCSDIERIDDFLELFDLKFAGTNLIESYSFGMKKKIQIVAAALANTDYILGDEIFNGLDFETTLLTLELFENLSREVGIVIISHNKLIIERFSENILLMSNGNLTPFLGASENLEKEVISTEKIHEKIKYIKGYHPINRVIY”, for which the “soluble on expression in E. coli” value is “not soluble”.
The result for “MGSDKIHHHHHHMTKPNQDAIGMLPFKQSTVSLQVQEHYKTPMLLLGYQQRWCADLTPVKVCEKSRRIGLSWGEAADSALFAASQKGMDTWYIGYNKDMAQEFIRDCADWAKAYGLAAGEIEETEEIFKEGDEEKAILAYVIRFSSGWRITALSSRPSNLRGKQGRVIIDEAAFHDDLPELLKAAMALLMWGGQVHIISTHNGVDNPFNELVNEVRAGKKPYSLHTITFDDAIKDGLYQRICLRLGRTWSQQAQDEWVAEIRASYGDAAAEELDCIPRNSGGAWLTRALIESRMNADTPRLCLEKKDEFALQPEPIRNREIAQWCDENLYPVLTALPEKQRHFLGMDFARSGDLSVIAIGQEQSDLCLKNVLLLELSNIPFAQQEQIYFYIGDRLPRFSKAANDARGNGQSLSEKAFDRYGAIVEGVMLSESWYREHTAPFKAALEDDTLFDIVKNDDVLADLRAFQVVKGIPRLPDKRTVGQNKTKRHGDAAIAYLLLHYAYRTDQSFEINFRSTGTRTTTQLFNNNSFERVRTGRGFGSIRGGNDFRGY” reads “not soluble”.
The result for “MLDPFSEKAKELLKEFGSMNEFLQAIPSLVDIEEVMNRLKFAKESEISEDILNIEDIRDLASFYAQIGALAYSPYGLELELVKKANLRIYTERIRRRRKIRSDEIGIEVKIAVEFPENDIKTLEKVYGGLPEYIVSLREFLDLVPDEKLSSYYVYDGNVYLRKDDLLKVWSKAFERNVEKAVNIIYEIRDELPEFYRRLAGEIRSFAEKEFSDKFREVQAGELKHHLFPPCVKNALRGVPQGMRNYAITVLLTSFLSYARICPNPPRRNVKIRDCIKDMRVITEEILPIIIEAGNRCSPPLFEDQPNEIKNIWYHLGFGYTANPTLEDSGNSTWYFPPNCDKIKANAPQLCTPDKHCRYIRNPLTYYLRRLYLEEKRRAKHADEGSDKGGKERILQLEHHHHHH” reads “not soluble”.
